{"source": "patent US20240139347A1", "about": "“COMPLEX, VASCULAR CONTRAST AGENT, X-RAY CONTRAST AGENT, METHOD FOR PRODUCING COMPLEX, AND IMAGING METHOD FOR CAPTURING STRUCTURAL CHANGE IN VESSEL” (TOHOKU UNIVERSITY, priority 2021, published 2024)", "origin": "cited, not measured here", "conditions": "Y. Nojima et al., Pharm. Res. 26 (2009)", "data": [{"molecule": "lactoferrin: lactoferrin (MW: 80 kDa), protein used in the complex of Example 1 (protein, UniProt P02788 20-710, looked up) Lactotransferrin: GRRRSVQWCAVSQPEATKCFQWQRNMRKVRGPPVSCIKRDSPIQCIQAIAENRADAVTLDGGFIYEAGLAPYKLRPVAAEVYGTERQPRTHYYAVAVVKKGGSFQLNELQGLKSCHTGLRRTAGWNVPIGTLRPFLNWTGPPEPIEAAVARFFSASCVPGADKGQFPNLCRLCAGTGENKCAFSSQEPYFSYSGAFKCLRDGAGDVAFIRESTVFEDLSDEAERDEYELLCPDNTRKPVDKFKDCHLARVPSHAVVARSVNGKEDAIWNLLRQAQEKFGKDKSPKFQLFGSPSGQKDLLFKDSAIGFSRVPPRIDSGLYLGSGYFTAIQNLRKSEEEVAARRARVVWCAVGEQELRKCNQWSGLSEGSVTCSSASTTEDCIALVLKGEADAMSLDGGYVYTAGKCGLVPVLAENYKSQQSSDPDPNCVDRPVEGYLAVAVVRRSDTSLTWNSVKGKKSCHTAVDRTAGWNIPMGLLFNQTGSCKFDEYFSQSCAPGSDPRSNLCALCIGDEQGENKCVPNSNERYYGYTGAFRCLAENAGDVAFVKDVTVLQNTDGNNNEAWAKDLKLADFALLCLDGKRKPVTEARSCHLAMAPNHAVVSRMDKVERLKQVLLHQQAKFGRNGSDCPDKFCLFQSETKNLLFNDNTECLARLHGKTTYEKYLGPQYVAGITNLKKCSTSPLLEACEFLRK", "values": [{"measurement": "half-life in blood of lactoferrin alone", "value": "about 7.8 min"}]}]}
